Values belong to the molecule of their own block, whether it stands above or below them. Ends that are not written are not given here.
Experiments:
[1] = tested on: CCND1 and CCNE1 expression; test: CCND1 and CCNE1 expression in breast cancer cells; format: cell-based; settings: overexpression in cells (FIG. 25C)
From the text: We first established stable MDA-MB-231 cell lines that express similar levels of the mutant or the wild-type full-length NPAC from cDNAs introduced with silent mutations and resistant to NPAC shRNA (data not shown). […] Thus, mutation of the LSD2-interacting residues F218, L219 and L291 of NPAC can disrupt LSD2 and NPAC functions in vivo.
We next examined if it is possible to use a small molecule to manipulate the interaction between NPAC and LSD2, thus affecting target gene expression. We have shown that a short mutant NPAC peptide (residues 214-225) can interact with LSD2 with high affinity, however, lost its cofactor activity. NPAC214-225.F217A is expected to be able to competitive inhibit the interaction between endogenous NPAC and LSD2, without stimulating LSD2 demethylase activity (FIG. 25A, right). […] Thus, unable to stimulate the histone demethylase activity of endogenous LSD2, this mutant peptide is a potent inhibitor of LSD2 function by competitively inhibiting LSD2 binding by endogenous NPAC.

[2] = tested on: nucleosomes purified from HeLa; test: Nucleosome pulldown by GST-NPAC proteins; format: binding
Method: Nucleosomes were purified from HeLa as previously described (Umlauf et al., 2004). To examine nucleosome binding selectivity of NPAC, 5 μg GST fusion protein bound to glutathione agarose were incubated with 20 μg nucleosomes overnight at 4° C. in nucleosome binding buffer (50 mM NaPO4 pH 7.4, 200 mM NaCl, 0.5% NP-40, 5% glycerol, 10 μM ZnSO4, 1 mM MgCl2, 1 mM DTT, 0.1 mM PMSF). After washing 4 times with the same buffer at 4° C., the beads were boiled in 1×SDS sample loading buffer and elute was resolved by 15% SDS-PAGE for immunoblot analysis or coomassie staining.
For free-DNA competition assays, human genomic DNA was purified from HeLa cells and fragmented to an average size around 300 bp by sonication. Equal amounts of GST-NPAC.d5 bound to glutathione beads were pre-incubated with 0, 5, 10, 25 μg genomic DNA fragments in nucleosome binding buffer for 30 minutes at room temperature, and equal amounts of nucleosomes were added and incubated overnight at 4° C. After extensive washing, GST-NPAC.d5 and bound nucleosomes were eluted by boiling in 1×SDS sample loading buffer, resolved by SDS-PAGE and stained with coomassie blue.

[3] = biological target: T1, His-LSD2 (Homo sapiens, UniProt Q8NB78); test: GST-pulldown of His-LSD2 by GST-NPAC proteins; format: binding; settings: coomassie blue staining
T1 construct: typically 0.5 μg full-length His-LSD2; made in house; host or cells: Sf9 insect cells
T1 sequence (Q8NB78 1-822): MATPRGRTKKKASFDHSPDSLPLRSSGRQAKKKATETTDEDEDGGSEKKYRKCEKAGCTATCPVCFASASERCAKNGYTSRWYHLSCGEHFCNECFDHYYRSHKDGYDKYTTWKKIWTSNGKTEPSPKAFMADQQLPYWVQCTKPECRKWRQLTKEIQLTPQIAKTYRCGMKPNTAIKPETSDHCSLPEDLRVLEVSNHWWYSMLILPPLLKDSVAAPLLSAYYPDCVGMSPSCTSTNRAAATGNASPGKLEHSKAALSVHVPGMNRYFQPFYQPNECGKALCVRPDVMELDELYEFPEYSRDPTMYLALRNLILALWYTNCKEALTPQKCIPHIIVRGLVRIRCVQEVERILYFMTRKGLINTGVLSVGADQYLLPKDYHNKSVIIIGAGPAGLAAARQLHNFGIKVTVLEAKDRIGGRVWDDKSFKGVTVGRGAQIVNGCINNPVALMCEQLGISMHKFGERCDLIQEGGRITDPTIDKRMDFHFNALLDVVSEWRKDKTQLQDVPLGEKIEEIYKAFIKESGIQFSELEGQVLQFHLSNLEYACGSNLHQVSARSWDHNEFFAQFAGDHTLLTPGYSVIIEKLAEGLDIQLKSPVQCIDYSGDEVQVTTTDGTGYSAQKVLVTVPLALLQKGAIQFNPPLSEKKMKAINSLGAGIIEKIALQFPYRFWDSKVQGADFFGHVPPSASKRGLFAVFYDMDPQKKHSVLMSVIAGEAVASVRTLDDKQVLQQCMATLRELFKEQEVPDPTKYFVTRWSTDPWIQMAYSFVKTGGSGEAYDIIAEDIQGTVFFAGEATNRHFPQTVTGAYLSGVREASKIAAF
Method: […] GST or GST-NPAC fusion proteins were bound to glutathione agarose, and were incubated with 2 μg full-length His-LSD2 overnight in 50 mM NaPO4 pH 7.4, 150 mM NaCl, 0.5% NP-40, 5% glycerol, 10 μM ZnSO4, 1 mM MgCl2, 1 mM DTT, 0.1 mM PMSF at 4° C. After washed 4 times with same buffer at 4° C., glutathione agarose beads were boiled in 1×SDS sample loading buffer. Elute was resolved on a 15% SDS-PAGE gel and stained by coomassie blue.

[4] = biological target: T1, His-LSD2; test: Nucleosome demethylation assay (NPAC cofactor activity for LSD2, immunoblot); format: biochemical; settings: threshold dosage of His-LSD2; nucleosomes purified from HeLa
Method: For nucleosome demethylation assays, typically 0.5 μg full-length His-LSD2, 1 μg NPAC protein or peptides, and 2 μg nucleosomes purified from HeLa were used, and demethylation efficiency was analyzed by SDS-PAGE electrophoresis and immunoblot using methylation specific anti-histone H3 antibodies as previously described (Shi et al. 2004).

[5] = tested on: double strand DNA; test: DNA binding assay (GST-pulldown)
Method: 5-10 μg GST and GST-tagged NPAC truncation proteins were incubated with 1 μg linearized plasmid DNA overnight at 4° C. in 50 mM Tris pH 7.4, 200 mM NaCl, 0.2% NP-40, 1 mM MgCl2, 1 mM EDTA, 1 mM DTT, 0.02 mM ZnSO4. After extensive washing with the same buffer, bound DNA was eluted by incubating with 100 μl 10 mM Tris pH 8.0, 1% SDS for 15 minutes at 65° C. Pulldown DNA was purified using Qiagen PCR purification kit, resolved by agarose gel electrophoresis and stained with Ethidium Bromide.

Molecule: GFP-NPAC214-225.F217A: GFP fusion of mutant NPAC peptide (residues 214-225) F217A, overexpressed in cells ({GFP}-DPHAHHFLLSQT; UniProt Q49A26 214-225, looked up, variant F217A)
CCND1 and CCNE1 expression on ectopic expression of the peptide [1]: consistently down regulates CCND1 and CCNE1 expression
CCND1 and CCNE1 expression on ectopic expression of the peptide ([1]; listed as NPAC.214-215.F217A peptide): down regulates CCND1 and CCNE1 expression

B1: NPAC.d3: Example 2 GST-NPAC truncation, residue 81-553 (protein, UniProt Q49A26 81-553, looked up, fragment)
chain: QAVDAVEEFLRRAKGKDQTSSHNSSDDKNRRNSSEERSRPNSGDEKRKLSLSEGKVKKNMGEGKKRVSSGSSERGSKSPLKRAQEQSPRKRGRPPKDEKDLTIPESSTVKGMMAGPMAAFKWQPTASEPVKDADPHFHHFLLSQTEKPAVCYQAITKKLKICEEETGSTSIQAADSTAVNGSITPTDKKIGFLGLGLMGSGIVSNLLKMGHTVTVWNRTAEKCDLFIQEGARLGRTPAEVVSTCDITFACVSDPKAAKDLVLGPSGVLQGIRPGKCYVDMSTVDADTVTELAQVIVSRGGRFLEAPVSGNQQLSNDGMLVILAAGDRGLYEDCSSCFQAMGKTSFFLGEVGNAAKMMLIVNMVQGSFMATIAEGLTLAQVTGQSQQTLLDILNQGQLASIFLDQKCQNILQGNFKPDFYLKYIQKDLRLAIALGDAVNHPTPMAAAANEVYKRAKALDQSDNDMSAVYRAYIH
modifications: GST tag
Nucleosome binding (GST-pulldown) [2]: abolish the ability to interact with nucleosomes

B5: NPAC.d4: Example 2 GST-NPAC truncation, residue 181-553 (protein, UniProt Q49A26 181-553, looked up, fragment)
chain: LTIPESSTVKGMMAGPMAAFKWQPTASEPVKDADPHFHHFLLSQTEKPAVCYQAITKKLKICEEETGSTSIQAADSTAVNGSITPTDKKIGFLGLGLMGSGIVSNLLKMGHTVTVWNRTAEKCDLFIQEGARLGRTPAEVVSTCDITFACVSDPKAAKDLVLGPSGVLQGIRPGKCYVDMSTVDADTVTELAQVIVSRGGRFLEAPVSGNQQLSNDGMLVILAAGDRGLYEDCSSCFQAMGKTSFFLGEVGNAAKMMLIVNMVQGSFMATIAEGLTLAQVTGQSQQTLLDILNQGQLASIFLDQKCQNILQGNFKPDFYLKYIQKDLRLAIALGDAVNHPTPMAAAANEVYKRAKALDQSDNDMSAVYRAYIH
modifications: GST tag
Nucleosome binding (GST-pulldown) [2]: abolish the ability to interact with nucleosomes

More lines, main results first:

LSD2 binding (GST-pulldown) [3]: sufficient for LSD2 interaction
B2: NP.d8: NPAC residues 188-252 (protein)
chain: TVKGMMAGPMAAFKWQPTASEPVKDADPHFHHFLLSQTEKPAVCYQAITKKLKICEEETGSTSIQ
modifications: also: fused to dimerising Fc or GST
Cofactor activity: stimulation of LSD2 demethylation of nucleosomal H3K4me2 [4]: significantly enhances LSD2 histone demethylase activity on nucleosomal substrates

DNA binding (GST-pulldown) [5]: unable to interact with DNA
Nucleosome binding (GST-pulldown) [2]: failed to interact with nucleosomes
B3: NPAC.d6: Example 2 GST-NPAC truncation, residues 1-81 (protein, UniProt Q49A26 1-81, looked up, fragment)
chain: MAAVSLRLGDLVWGKLGRYPPWPGKIVNPPKDLKKPRGKKCFFVKFFGTEDHAWIKVEQLKPYHAHKEEMIKINKGKRFQQ
modifications: GST tag

Nucleosome binding (GST-pulldown) [2]: strong binding to nucleosomes
B4: NPAC.d2: Example 2 GST-NPAC truncation, residues 1-250 (protein, UniProt Q49A26 1-250, looked up, fragment)
chain: MAAVSLRLGDLVWGKLGRYPPWPGKIVNPPKDLKKPRGKKCFFVKFFGTEDHAWIKVEQLKPYHAHKEEMIKINKGKRFQQAVDAVEEFLRRAKGKDQTSSHNSSDDKNRRNSSEERSRPNSGDEKRKLSLSEGKVKKNMGEGKKRVSSGSSERGSKSPLKRAQEQSPRKRGRPPKDEKDLTIPESSTVKGMMAGPMAAFKWQPTASEPVKDADPHFHHFLLSQTEKPAVCYQAITKKLKICEEETGSTS
modifications: GST tag

Nucleosome binding (GST-pulldown) [2]: can readily do so
B6: NPAC.d5: Example 2 GST-NPAC truncation, residues 1-120 (protein, UniProt Q49A26 1-120, looked up, fragment)
chain: MAAVSLRLGDLVWGKLGRYPPWPGKIVNPPKDLKKPRGKKCFFVKFFGTEDHAWIKVEQLKPYHAHKEEMIKINKGKRFQQAVDAVEEFLRRAKGKDQTSSHNSSDDKNRRNSSEERSRP
modifications: GST tag
DNA binding (GST-pulldown) [5]: pulls down DNA nearly as efficiently as NPAC.d1
Nucleosome binding in the presence of increasing free double strand DNA ([2]; 0, 5, 10, 25 μg genomic DNA fragments): compromised the nucleosome binding ability of NPAC.d5 in a dose dependent manner
